Results as given in the supplement of paper PMC9233669.
This sample holds only a part of the variants without activity.

Experiments:
[1] = test system: biotinyl-Ile-oxazolone; experiment: self-aminoacylation, catalytic enhancement (BIO) (fold over background); higher = more active; k-Seq, kA / k0A0; sequences stand for … in GGGAAUGGAUCCACAUCUACGAAUUC…UUCACUGCAGACUUGACGAAGCUG
How it was run: (§1)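 Catalytic enhancement equals the median kA over the uncatalyzed rate, the latter read from the low-activity peak of a bimodal Gaussian fit. Values of kA came from fitting each sequence's fraction reacted to a pseudo-first-order model, with 1000 bootstraps. Reacted RNA was captured with streptavidin and quantified by triplicate qPCR and Illumina sequencing after 90 minutes at room temperature with 2–1250 μM biotinyl-aminoacyl-oxazolone and 0.43 μM mutagenized RNA pools bearing a 21-nt variable region.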

[2] = test system: biotinyl-Phe-oxazolone; experiment: self-aminoacylation, catalytic enhancement (BFO) (fold over background); higher = more active; k-Seq, kA / k0A0; sequences stand for … in GGGAAUGGAUCCACAUCUACGAAUUC…UUCACUGCAGACUUGACGAAGCUG
How it was run: as §1

[3] = test system: biotinyl-Met-oxazolone; experiment: self-aminoacylation, catalytic enhancement (BMO) (fold over background); higher = more active; k-Seq, kA / k0A0; sequences stand for … in GGGAAUGGAUCCACAUCUACGAAUUC…UUCACUGCAGACUUGACGAAGCUG
How it was run: as §1

[4] = test system: biotinyl-Val-oxazolone; experiment: self-aminoacylation, catalytic enhancement (BVO) (fold over background); higher = more active; k-Seq, kA / k0A0; sequences stand for … in GGGAAUGGAUCCACAUCUACGAAUUC…UUCACUGCAGACUUGACGAAGCUG
How it was run: as §1

[5] = test system: biotinyl-Leu-oxazolone; experiment: self-aminoacylation, catalytic enhancement (BLO) (fold over background); higher = more active; k-Seq, kA / k0A0; sequences stand for … in GGGAAUGGAUCCACAUCUACGAAUUC…UUCACUGCAGACUUGACGAAGCUG
How it was run: as §1

[6] = test system: biotinyl-Trp-oxazolone; experiment: self-aminoacylation, catalytic enhancement (BWO) (fold over background); higher = more active; k-Seq, kA / k0A0; sequences stand for … in GGGAAUGGAUCCACAUCUACGAAUUC…UUCACUGCAGACUUGACGAAGCUG
How it was run: as §1

Sequence	self-aminoacylation [1]	self-aminoacylation [2]	self-aminoacylation [3]	self-aminoacylation [4]	self-aminoacylation [5]	self-aminoacylation [6]
AUUAACGUAGGUCAUCGGGUG [Fam2.2 aminoacylation ribozyme variant]	2.52	42.1	4.05	3.05	3.84	3.61
CCACACUUUGAGCAAUCGGUC [Fam1B.1 aminoacylation ribozyme variant]	1.05	0.83	0.858	1.06	0.96	0.721
AUUACCUUGGACAUCGAGUGA [Fam2.1 aminoacylation ribozyme variant]	3.16	26.3	5.7	2.9	6.08	7.94
AUUGUCCUAGGUCAUCGGGUG [Fam2.2 aminoacylation ribozyme variant]	14.2	200	30.2	13.6	39.1	27.1
CUAUUUCAAACAAUCGGUCUC [Fam1A.1 aminoacylation ribozyme variant]	0.818	7.11	0.775	0.835	0.785	3.67
AUUCACCUUGGUCAUCGGGAG [Fam2.2 aminoacylation ribozyme variant]	1.07	0.73	1.05	1.05	1.09	1.27
AUUUACCUAGGUCAUAGGGUG [Fam2.2 aminoacylation ribozyme variant]	1.37	1.34	1.58	1.48	1.87	1.97
AUUCACGUAGGUCUUCGGGUG [Fam2.2 aminoacylation ribozyme variant]	3.86	40.1	4.21	5.24	4.82	4.88
AUUAUCCUGGUCAGCGAGUGA [Fam2.1 aminoacylation ribozyme variant]	3.04	17.7	5.26	3.13	5.28	6.53
CUACUUGAAACUAUCGGUCUG [Fam1A.1 aminoacylation ribozyme variant]	1.03	0.599	0.986	0.975	0.941	0.685
AUUACCAUGGUCAUGGAGUGA [Fam2.1 aminoacylation ribozyme variant]	3.74	24.3	5.25	3.34	5.78	7.35
UUACUUCAAAAAAUCGGUCUG [Fam1A.1 aminoacylation ribozyme variant]	1.44	7.17	1.22	0.984	1.29	5.65
AAGCCUGCUAAUAGUCGCAAG [Fam3.1 aminoacylation ribozyme variant]	1.86	37.3	1.61	1.77	1.64	11.1
UCACACUUCAAGCAAUCGGAC [Fam1B.1 aminoacylation ribozyme variant]	0.844	1.56	0.732	0.821	0.598	0.994
AUUAACUUGGUCAUCGAGUGA [Fam2.1 aminoacylation ribozyme variant]	2.9	3.99	3.67	2.48	4.16	4.83
AUACUUCAAGCAAUCGGUCUG [Fam1A.1 aminoacylation ribozyme variant]	0.786	2.15	0.824	0.77	0.853	1.48
AUACUUCAAACAAUAGGUCUG [Fam1A.1 aminoacylation ribozyme variant]	1.08	1.25	0.812	0.923	0.835	0.803
CCACACUUCAAGCAAUAGGUG [Fam1B.1 aminoacylation ribozyme variant]	1.85	4.08	2.17	1.65	2.81	2.55
AAUACCCUGAUCAUCGAGUGA [Fam2.1 aminoacylation ribozyme variant]	2.79	18.6	6.32	3.21	6.22	7.59
AAGUUUGCAAAGAGUCGCAAG [Fam3.1 aminoacylation ribozyme variant]	0.841	1.41	0.929	0.832	0.949	1.54
AAGUUUGUUAACAGUCGCAAG [Fam3.1 aminoacylation ribozyme variant]	1.09	1.11	0.806	0.996	1.03	0.988
CUUCUUCAAACAAUCGUUCUG [Fam1A.1 aminoacylation ribozyme variant]	0.68	1.06	0.62	0.6	0.65	0.804
ACUCACCUAGGUCAUCGGGUU [Fam2.2 aminoacylation ribozyme variant]	5.92	31.3	8.19	5.06	11.3	6.68
GUGACCCUGGUCAUCGAGUGA [Fam2.1 aminoacylation ribozyme variant]	7.41	144	21.7	7.42	19.6	17.8
AAGUUUGCUAAUAGUCGAAAG [Fam3.1 aminoacylation ribozyme variant]	1.38	17.9	1.47	1.22	1.14	5.4
AUUAACCUGGGUCAUCGGGUG [Fam2.2 aminoacylation ribozyme variant]	6.99	39.6	13.4	6.35	15.6	11.4
CUACUUCAAACAAUCGGCCUA [Fam1A.1 aminoacylation ribozyme variant]	1.48	2.51	1.39	1.16	1.25	1.43
GCACACUUCAAGCAGUCGGUC [Fam1B.1 aminoacylation ribozyme variant]	1.56	1.33	1.55	1.41	1.75	1.69
CCACGCUUCAAGCAAUGGGUC [Fam1B.1 aminoacylation ribozyme variant]	0.646	0.735	0.537	0.656	0.627	0.419
ACCACCCUGGUCAUCGAGUGA [Fam2.1 aminoacylation ribozyme variant]	4.75	27.9	10.1	5.17	9.22	9.59
